Key:
peptide MetSO reductase = target: T1, peptide MetSO reductase (Escherichia coli, UniProt P0A744); test: Inhibition of the reduction of MetSO-L12 by excess free MetSO; assay type: biochemical, E. coli; settings: 1×10^-4 M MetSO, about 60 times the concentration of MetSO-L12; read-out: inhibition of the enzymatic activity of peptide MetSO reductase
T1 construct: made in house; host or cells: E. coli Z19 cells (endogenous enzyme, not recombinant; ammonium sulfate, DE-52, Ultrogel AcA-44, DEAE-Sephadex)
T1 sequence (P0A744 2-212): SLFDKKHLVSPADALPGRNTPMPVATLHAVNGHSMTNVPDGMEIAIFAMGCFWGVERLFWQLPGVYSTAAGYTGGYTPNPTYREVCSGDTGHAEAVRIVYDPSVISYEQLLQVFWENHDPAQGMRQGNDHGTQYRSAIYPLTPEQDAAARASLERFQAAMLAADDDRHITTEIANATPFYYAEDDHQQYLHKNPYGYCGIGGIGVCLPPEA
Method: The assay for the reduction of MetSO-L12 to L12 is based on the ability of L12-transacetylase to specifically acetylate the amino terminal serine of Met-L12 to form acetyl-Met-L12, i.e. L7. A two-step incubation was used. […] After a 60 min incubation at 37°, the reaction mixtures were placed on ice and to each reaction mixture were added 2 μmol of sodium arsenite, 1.2 μg partially purified L12-transacetylase (see below) and [^3 H] acetyl-CoA (935 pmoles, 237 cpm/pmol) and the volume brought to 50 μl. The second incubation (acetylation reaction) was for 5 min at 37°, after which the reaction mixtures were diluted with 3 ml of cold buffer A and filtered through a nitrocellulose filter. The filters were washed with 10 ml of this same buffer, dissolved in scintillation fluid and the radioactivity determined. Under these conditions L12 and acetyl-L12 are quantitatively retained by the nitrocellulose filter. The results are reported as pmoles of acetyl-L12 formed under these conditions.

Met-L12 = test: L12-transacetylase assay: acetylation of Met-L12; assay type: biochemical, E. coli
Method: The fractions containing the enzyme activity were pooled (750 mg), concentrated and applied to a hydroxyapatite column (2×15 cm) equilibrated with a buffer containing 25 mM KPO4, pH 6.9, 1 mM β-mercaptoethanol and 10% glycerol. The column was eluted with a gradient from 25 mM to 250 mM KPO4, pH 6.9, containing 1 mM β-mercaptoethanol and 10% glycerol and the fractions containing enzymatic avtivity were pooled and concentrated (72 mg). This procedure yielded a 225 fold purification of the enzyme. Under standard conditions of assay as set forth by Brot and Weissbach [Biochem. Biophys. Res. Commun. 49, 673 (1972)] this fraction acetylated 46 nmols of Met-L12 per mg protein in 5 min. […] These properties are essential in order to use the enzymatic acetylation of Met-L12 as an assay for MetSO-L12 reduction. It was seen that at all concentrations of Met-L12, only one-third of the protein is acetylated.

In the case of `C[S+]([O-])CC[C@H](N)C(=O)O` (stereo partly shown) [MetSO, methionine sulfoxide], the inhibition at 100 µM (peptide MetSO reductase) is reported as under 20%.

B1: L12-transacetylase: Partially purified E. coli Q13 enzyme that acetylates the amino terminal serine of Met-L12 to form acetyl-Met-L12 (L7) (protein, UniProt P13857 1-179, looked up)
Ribosomal-protein-serine …: MTETIKVSESLELHAVAENHVKPLYQLICKNKTWLQQSLNWPQFVQSEEDTRKTVQGNVMLHQRGYAKMFMIFKEDELIGVISFNRIEPLNKTAEIGYWLDESHQGQGIISQALQALIHHYAQSGELRRFVIKCRVDNPQSNQVALRNGFILEGCLKQAEFLNDAYDDVNLYARIIDSQ
modifications: partially purified
For B1, the “MetSO-L12 as substrate for acetylation” value (Met-L12) was “not a substrate”, the “fraction of Met-L12 acetylated” value (Met-L12; at all concentrations of Met-L12) was “one-third” and the Met-L12 acetylated (Met-L12; in 5 min, standard conditions of assay, hydroxyapatite fraction) was 46 nmols per mg protein.
